From paper PMC4870115 (Biochemistry, 2016)

Molecular target: the molecule itself
Test: crystal structure

B1: ToxA of Burkholderia glumae (enzyme)
chain: MSTTARYDSIGGLFEDFTQSAAQRAIEVRTIFHMIGDVSGKSVLDLACGFGFFGREIYRRGAAKVVGVDISEKMIELAREESRKYGDPLEFHVRDVANMEPLGQFDLVNAAWLFNYADSVENLRKMFKVVRASLKPDGKLVAYTVDPDFSLAKGNFAKYGVNVLNERAWGPGYRHDAEFVTDPPSQFSFYRWSRADYESAIADAGFSHFEWQKPLLEADDIATHPPGFWDVFQNNCLQTGLVCKP
stoichiometry N: 4
